Assay results from PMC12280208 (Nature Communications, 2025).

Molecular target: MVP3-5 (MVP residues 102-274), wild type (human, UniProt Q14764 102-274)
Experiment: SEC

Sequence of MVP3-5 (MVP residues 102-274), wild type (Q14764 102-274): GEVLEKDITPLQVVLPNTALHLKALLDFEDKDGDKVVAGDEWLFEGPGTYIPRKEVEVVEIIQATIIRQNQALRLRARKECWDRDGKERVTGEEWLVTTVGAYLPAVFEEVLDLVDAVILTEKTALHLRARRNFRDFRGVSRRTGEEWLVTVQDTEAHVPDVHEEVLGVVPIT

B1: PARP4 MINT domain (residues 1562-1724), wild type (domain or fragment)
chain: VCIQHWQDAVPWTELLSLQTEDGFWKLTPELGLILNLNTNGLHSFLKQKGIQSLGVKGRECLLDLIATMLVLQFIRTRLEKEGIVFKSLMKMDDASISRNIPWAFEAIKQASEWVRRTEGQYPSICPRLELGNDWDSATKQLLGLQPISTVSPLHRVLHYSQG
B1: binds.
